The values below come from patent US20220185900A1.

B1: H4H8056P (antibody, human IgG4, V domains shown)
VH: QVQLVESGGGVVQPGRSLRLSCAASGFTFRNYGMHWVRQAPGKGLEWVAVKRYDGSDEYFVDSVKGRFTISRDNSKNTLFLQMNSLRVDDTAVYYCARETPITGTTLDYWGQGTLVTVSS
VL: DIQMTQSPSSLSASVGDRVTITCRTSQSITNYLNWYQQKPGKAPKLLIYAASRSQSGVPSRFSGSGSGTDFTLTISSLQPEDFATYYCQQSYSTPLTFGGGTKVEIK
B2: H4H8058P (antibody, human IgG4, V domains shown)
VH: QVQLVESGGGVGQPGRSLRLSCVASGFTFRNYGMHWVRQAPGKGLDWVAIIGYDGSKEYNVDSVKGRFTISRDNSKNTLYLQMNSLGAEDTAIYYCARESPITGTTFDYWGQGTLVTVSS
VL: DIQMTQSPPSLSASVGDRVTITCRASQSIGNYLNWYQQKPGKAPKILIYAASRLQSGVPSRFSGSGSGTDFTLTISSLQPEDFATYYCQQSYSTPLTFGGGTKVEIK
B3: H4H8080P (antibody, human IgG4, V domains shown)
VH: EVQLVESGGGLVQSGGSLRLSCVASGFTFSTYAMTWVRQAPGRGLEWVSAISGSGASTYYADSLKGRFTVSRDNSKNTLYLQMNSLRAEDTAVYYCSKDHRNYDSDYDMDVWGQGTTVTVSS
VL: DIQMTQSPSSLSASVGDRVTITCRASQGIRNYLGWYQQKPGKAPKRLIYTASSLQSGVPSRFRGSGSGTEFTLTISSLQPEDFATYYCLQHNSYPYTFGQGTKLEIK
B4: H4H8060P (antibody, human IgG4, V domains shown)
VH: QVTLKESGPVLVKPTETLTLTCTVSGFSLSSARMGVSWIRQPPGKALEWLAHIFSTDEKSYSTSLKSRLSISKDTSLSQVVLIMTNMDPVDTATYYCARRTTMAPYYYYYGMDVWGHGTTVTVSS
VL: AIQMTQSPASLSASVGDRVTITCRASQGIRNDLGWYQQKPGKAPKLLISAASSLQSGVPSRFSGSGSGTDFTLTISSLQPEDFATYYCLQDYKYPWTFGQGTKVEIK
B5: H4H8062P (antibody, human IgG4, V domains shown)
VH: EVQLVESGGGLVQPGGSLRLSCSVSGFIFKNYAMRWVRQAPGKGLEWVSGISGSGGITYYADSVRGRVTISRDNSKNTLDLQMTNLRAEDTAVYYCAKAEYSSSGAYFDYWGQGTLVTVSS
VL: DIQMTQSPSSLSASVGDRVTITCRASQSIHNYLNWYLQRPGKAPKLLVYAASSLQSGVPSRFSGRGSGTDFTLTISSLQPEDFATYYCQQSYSAPYSFGQGTKLEIK
B6: H2M7086N (antibody, mouse IgG2, V domains shown)
VH: QVQLVESGGGVVQPGRSLRLSCVVSGFTFSNYGMHWVRQGPGRGLEWLALIWYDGSDKYYAESVRGRFTISRDNSKNTVYLQMNSLRAEDTAMYYCTRDRIFDYWGQGTLVTVSS
VL: AIQMTQSPSSLSASVGDRVTITCRASQDIRNDLGWYQHNPGKAPNLLIYAASTLQIGVPSRFRGSGSGTDFTLTISSLQPEDFATYYCLQDFDYPLSFGGGTKVEIR
B7: H4H8066P (antibody, human IgG4, V domains shown)
VH: EVQLVESGGGLVQPGGSLRLSCEASGFTFSRYAMTWVRQAPGKGLEWVSGISGSGGSTFYVDSLQGRFTLSRDNSKHTLFLQMNSLRAEDTAIYYCAKENTYGHFDYWGQGTLVTVSS
VL: DIQLTQSPSFLSASVGDRVTITCWASQDISTYLAWYQQKPGKAPQVLIYAASSLQYGVPSRFSGSGSGTEFTLTITSLQPEDFATYYCQQLIGYPYIFGQGTKLEIK
B8: H4H8079P (antibody, human IgG4, V domains shown)
VH: EVQLVESGGGLVKPGGSLRLSCAASGFTFSNAWMSWVRQAPGKGLEWVGRIKSKTDGGTSEYAAPVKGRFTISRDDSKNTLFLQMNSLKSEDAAVYYCTTGRSWSDYFDFWGQGTLVTVSS
VL: not shown
B9: H4H8067P (antibody, human IgG4, V domains shown)
VH: QVQLVESGGGVVQPGRSLRLSCVASGFTFSNYGMHWVRQAPGKGLEWVALIWYDGSNKYFADSVKGRFTISRDNSKRMMFLEMNSLRAEDTAIYYCTRDRLFDFWGQGTLVTVSS
VL: AIQMTQSPSSLSASVGDRVSITCRASQDIRHDLGWFHQKPGKAPKLLIYAASTLQSGVPSRFGGSGSGTDFTLTITSLQPEDFGTYYCLQDYNYPATFGQGTRLEIK
B10: H4H8076P (antibody, human IgG4, V domains shown)
VH: QVQLQQSGPGLVKPSQTLSLTCAISGDSVSSNSVAWNWIRQSPSRGLEWLGRTYYRSNWYNTYAVSVKSRITIDPDTSKNQFSLQLNSVTPEDTALYYCARGHRYSGSYFDYWGQGTLVTVSS
VL: DIQMTQSPSSLSASVGDRVTITCRASQNINSYFNWYQQKPGKAPKLLIYAASSLQSGVPSRFSGGGSGTDFTLTISSLQPEDFATYYCQQTYTIPWTFGQGTKVEIK
B11: H4H8084P (antibody, human IgG4, V domains shown)
VH: QVQLVESGGGVVQPGRSLRLSCEASGFTFRNYGMHWVRQAPGKGLDWVSTIYYDGSDEYYSDSVKGRFTISRDNSKNTLYLQMNSLRAEDTAVYYCARDPPSFRYFDYWGQGTLVTVSS
VL: DIQMTQSPSTLSASVGDRVTITCRASQSIRSWLTWYQQKPGKAPKVLIYKASTLERGVPSRFSGSGSGTEFTLTISSLQPEDFATYYCHQYSSYSYTFGQGTKLEIK
B12: H4H8046P (antibody, human IgG4, V domains shown)
VH: QVQLVQSRDEVKKPGASVKVSCKASGYTFTTYGISWVRQAPGQGLEWMGWINTYNGDTNYAQKVQDRVIMTTDTSTSTAYMELRSLRSDDTAVYFCAGARPLGGRRAFDIWGQGTMVTVSS
VL: DIQMTQSPSSLSASVGDRVTITCRASQGISHYLAWYQQKPGKVPKLLIYAASTLQSGVPSRFSGSGSGTDFTLTISSLQPEDVATYYCQKYNSVPWTFGQGTKVEIK
B13: H4H8083P (antibody, human IgG4, V domains shown)
VH: QVQLVESGGGVVQPGRSLRLSCAASGFTFNNYVMHWVRQAPGKGLEWVALIWYDGSNKYYADSVKGRFTISRDNSKNALNLQMNSLRAEDTAVYFCARVSIAARNYYYGGLDVWGQGTTVTVSS
VL: EIVLTQSPGTLSLSPGERATLSCRASQSVSSTYLAWYQQKPGQAPRLLIYGASSRATGIPDRFSGSGSGTDFTLTISRLEPEDFAVYYCQHYGGSPLTFGGGTKVEIK
B14: H4H8045P (antibody, human IgG4, V domains shown)
VH: EVQLVESGGALVQPGGSLRLSCAASGFTFSNYAMTWVRQAPGMGLEWVSGISSSGASTFYADSVKGRFTISRDNSKNTLYLQMNSLRAEDTAVYYCAKEDYWGWFDYWGQGTLVTVSS
VL: DIQLTQSPSFLSASVGDRVTITCWASQDVSSYLAWYQQEPGKAPKVLIYDASTLQSGVPSRFSGSGSGTEFTLTISSLQPEDFAPYYCQQLNSYPYTFGQGTKLEIK
B15: H4H8071P (antibody, human IgG4, V domains shown)
VH: EVQLVESGGGLVQPGGSLRLSCAASGFTFTTYFMSWVRQAPGKGLEWVSGISGSGTSTFYVDSMKGRFTISRDNSKNTLYLQMNSLRVEDTAVYFCAKENTYGHFDFWGQGTLVTVSS
VL: DIQLTQSPSFLSASVGDRVTITCWASQDISSHLAWYQQKPGKAPKVLIYDASTLQSGVPSRISGSGSGTEFTLTISSLQPEDFAAYYCQQLDGYPYTFGQGTKLEIK

Bounds are passed on as bounds.

The target of this assay is human RET on cells (MCF7/SRE-Luc; HEK293/hGFRα3/hRET/SRE-Luc; HEK293/hGFRα1/hRET/SRE-Luc) (human), P07949. Nature of the assay: cell-based or functional assay.
Regarding B1, the MCF7/SRE-Luc % Activation came to 0%, the MCF7/SRE-Luc Avg % Blocking is 73% and the MCF7/SRE-luc Avg. IC50 was found to be 2 nM.
Molecule B2 returned an Internalization (% H4H8087P), HEK293/hGFRa1/hRET/SRE-Luc cells, 37 C of 42%; an MCF7/SRE-Luc % Activation of 0%; an MCF7/SRE-Luc Avg % Blocking of 85%; an MCF7/SRE-luc Avg. IC50 of 5.4 nM.
For B3, the 293/hGFRα3/hRET SRE-luc % Blocking came to 57%, the 293/hGFRα3/hRET/SRE-Luc IC50 came out at 341 nM, the MCF7/SRE-Luc % Activation came to 0% and the MCF7/SRE-Luc Avg % Blocking came out at 41%. The MCF7/SRE-luc Avg. IC50 was more than 100 nM.
Turning to B4, the MCF7/SRE-Luc % Activation turned out to be 0%, the MCF7/SRE-Luc Avg % Blocking is 87% and the MCF7/SRE-luc Avg. IC50 was more than 100 nM.
B5: the Internalization (% H4H8087P), HEK293/hGFRa1/hRET/SRE-Luc cells, 37 C stood at 44.9%; the MCF7/SRE-Luc % Activation was 0%; the MCF7/SRE-Luc Avg % Blocking worked out at 100%; the MCF7/SRE-luc Avg. IC50 is 5.2 nM.
For the molecule B6, the 293/hGFRα3/hRET SRE-luc % Blocking turned out to be 98%, the 293/hGFRα3/hRET/SRE-Luc IC50 was 4 nM, the MCF7/SRE-Luc % Activation was determined as 0% and the MCF7/SRE-Luc Avg % Blocking was determined as 100%. Besides, the MCF7/SRE-luc Avg. IC50 was determined as 2.6 nM.
For B7, in that order: 93%, 1.5 nM, 0%, 60% and 0.39 nM.
Take B8: the 293/hGFRα3/hRET SRE-luc % Blocking was determined as 96%; the 293/hGFRα3/hRET/SRE-Luc IC50 turned out to be 0.8 nM; the Internalization (% H4H8087P), HEK293/hGFRa1/hRET/SRE-Luc cells, 37 C amounted to 62.8%; the MCF7/SRE-Luc % Activation stood at 0%. In addition, the MCF7/SRE-Luc Avg % Blocking worked out at 90% and the MCF7/SRE-luc Avg. IC50 amounted to 0.15 nM.
Molecule B9 registered a 293/hGFRα3/hRET SRE-luc % Blocking of 99%; a 293/hGFRα3/hRET/SRE-Luc IC50 of 4.8 nM; an Internalization (% H4H8087P), HEK293/hGFRa1/hRET/SRE-Luc cells, 37 C of 58.2%; an MCF7/SRE-Luc % Activation of 0%. The molecule further gave an MCF7/SRE-Luc Avg % Blocking of 91% and an MCF7/SRE-luc Avg. IC50 of 3.8 nM.
The molecule B10 gave an MCF7/SRE-Luc % Activation of 3%, an MCF7/SRE-Luc Avg % Blocking of 74% and an MCF7/SRE-luc Avg. IC50 of 55.7 nM.
In turn, B11 had a 293/hGFRα3/hRET SRE-luc % Blocking of 94%, a 293/hGFRα3/hRET/SRE-Luc IC50 of 2.1 nM, an MCF7/SRE-Luc % Activation of 0% and an MCF7/SRE-Luc Avg % Blocking of 100%. Besides, the MCF7/SRE-luc Avg. IC50 was 10.4 nM.
On to B12, for which the 293/hGFRα3/hRET SRE-luc % Blocking was 91%, the 293/hGFRα3/hRET/SRE-Luc IC50 was determined as 11.8 nM, the MCF7/SRE-Luc % Activation stood at 5% and the MCF7/SRE-Luc Avg % Blocking stood at 78%. The MCF7/SRE-luc Avg. IC50 amounted to 44 nM.
On to B13, for which the 293/hGFRα3/hRET SRE-luc % Blocking amounted to 81%, the 293/hGFRα3/hRET/SRE-Luc IC50 came to 57 nM, the MCF7/SRE-Luc % Activation was 0% and the MCF7/SRE-Luc Avg % Blocking was determined as 68%. The molecule also gave an MCF7/SRE-luc Avg. IC50 of more than 100 nM.
The corresponding values for B14 are 96%, 0.42 nM, 0%, 69% and 0.14 nM.
In turn, B15 registered an MCF7/SRE-Luc % Activation of 0%, an MCF7/SRE-Luc Avg % Blocking of 84% and an MCF7/SRE-luc Avg. IC50 of 0.45 nM.
